Legend:
AGS cells = assay: Antiproliferative activity, CellTiter-Glo Cell Viability Assay; format: cell-based; details: 10 μM, 96 hrs, 2% serum
Procedure: Antiproliferative activity were evaluated with the CellTiter-Glo Cell Viability Assay. AGS cells (3×10^3/well) were seeded in 96 well plates. The next day, cells were treated with DMEM (vehicle) or 10 μM HM165S3B, HM15S3B′(V28L) for 96 hrs in the presence of serum (2%). Proteins were replaced daily. Cell growth and survival were evaluated with the CellTiter-Glo Cell Viability Assay (Promega, Madison, Wis.). Measurements using a Luminometer (Turner Designs, Sunnyvale, Calif.) were conducted following the manufacturer's protocol.

RAW 264.7 cells [1] = assay: Cell-to-cell protein transfer (flow cytometry); format: cell-based
Procedure: For this, RAW 264.7 cells were treated with 5 μM of FITC-labeled HM165S3B, HTS3B for 2 hour and washed with PBS two times. Thereafter, they were seeded on PANC-1 cell, incubated for 2 hours and treated with 20 ng/ml of IFN-γ for 15 minutes, followed by Western blotting in the same manner as in Example 8-1. And Cell-to-cell protein transfer was assessed by flow cytometry.
For this, RAW 264.7 cells were treated with 10 uM of FITC-labeled iCP-SOCS3 (HM165S3B) protein for 1 hour. Thereafter, these cells were co-cultured with PerCP-Cy5.5-CD 14-stained RAW 264.7 cells for 2 hours. Cell-to-cell protein transfer was assessed by flow cytometry, scoring for CD14/FITC double-positive cells.

Hep3B2.1-7 tumor = assay: Anti-tumor activity in cell-derived xenograft model; format: in vivo, Balb/c nu/nu mice; details: IV 600 μg/head for 21 days
Procedure: Female Balb/c^nu/nu mice (5-week-old, Doo-Yeol Biotech Co. Ltd. Korea) were subcutaneously implanted with Hep3B2.1-7 tumor block (1 mm^3) into the left back side of the mouse. […] Tumor size was monitored by measuring the longest (length) and shortest dimensions (width) once a day with a dial caliper, and tumor volume was calculated as width2×length×0.5.

Chang liver cells = assay: Induction of apoptosis, TUNEL assay; format: cell-based, human; details: 10 μM, 24 hr, 2% fetal bovine serum
Procedure: (§1) Apoptotic cells were analyzed using terminal dUTP nick-end labeling (TUNEL) assay with In Situ Cell Death Detection kit TMR red (Roche, 4056 Basel, Switzerland). Cells were treated for 24 hr with 10 μM HS3B or HM165S3B proteins with 2% fetal bovine serum and apoptotic cells were visualized by TUNEL staining. Treated cells were washed with cold PBS two times, fixed in 4% paraformaldehyde (PFA, Junsei, Tokyo, Japan) for 1 hr at room temperature, and incubated in 0.1% Triton X-100 for 2 min on the ice. Cells were washed with cold PBS twice, and treated TUNEL reaction mixture for 1 hr at 37° C. in dark, washed cold PBS three times and observed by fluorescence microscopy (Nikon, Tokyo, Japan). Cisplatin® (IC50: 30 μM) was used for reference drug.

Huh7 cells = assay: Induction of apoptosis, TUNEL assay; format: cell-based, human; details: 10 μM, 24 hr, 2% fetal bovine serum
Procedure: as §1

[2] = system: Hep3B2.1-7 hepatocellular carcinoma cells; assay: Anti-proliferative activity, CellTiter-Glo, hepatocellular carcinoma cells; format: cell-based, human; details: 10 μM, 96 hrs, compared to vehicle
Procedure: Cells originated from human hepatocellular carcinoma cell (Hep3B, HepG2, Huh-7, SK-Hep1), human normal cells (HEK293, HaCaT, Chang liver cell) and mouse fibroblast (NIH3T3) were purchased from ATCC (Manassas, Va., USA) and KCLB (Seoul, Korea). All the cells were maintained as recommended by the supplier. These cells (3×10^3/well) were seeded in 96 well plates. The next day, cells were treated with DMEM (vehicle) or 10 μM recombinant SOCS3 proteins for 96 hrs in the presence of serum (2%). Proteins were replaced daily. Cell growth and survival were evaluated with the CellTiter-Glo Cell Viability Assay (Promega, Madison, Wis.). Measurements using a Luminometer (Turner Designs, Sunnyvale, Calif.) were conducted following the manufacturer's protocol.

RAW 264.7 cells [3] = assay: Mechanism of aMTD-mediated uptake (EDTA, proteinase K, taxol, antimycin, temperature; flow cytometry); format: cell-based; details: for protein uptake after proteinase K pretreatment: 5 ug/ml proteinase K 10 minutes; for protein uptake after taxol pretreatment: 20 uM taxol 30 minutes
Procedure: The mechanism of basic CPP (TAT and PolyR)-mediated intracellular delivery was also investigated in the same manner as in Example 7-1 and Example 14-2.
(1) RAW 264.7 cells were pretreated with 100 mM EDTA for 3 hours, and then treated with 10 uM of iCP-SOCS3 (HM165S3B) protein for 1 hour, followed by flow cytometry in the same manner as in Example 7-1 (FIG. 51A).
(2) RAW 264.7 cells were pretreated with 5 ug/ml of proteinase K for 10 minutes, and then treated with 10 uM of iCP-SOCS3 (HM165S3B) protein for 1 hour, followed by flow cytometry (FIG. 51B).
(3) RAW 264.7 cells were pretreated with 20 uM taxol for 30 minutes, and then treated with 10 uM of iCP-SOCS3 (HM165S3B) protein for 1 hour, followed by flow cytometry (FIG. 52A).
(4) RAW 264.7 cells were pretreated with 1 mM ATP and 10 uM antimycin singly or in combination for 2 hours, and then treated with 10 uM of iCP-SOCS3 (HM165S3B) protein for 1 hour, followed by flow cytometry (FIG. 52B).
(5) RAW 264.7 cells were left at 4° C. and 37° C. for 1 hour, respectively, and then treated with 10 uM of iCP-SOCS3 (HM165S3B) protein for 1 hour, followed by flow cytometry (FIG. 53).

IL-6 = assay: LPS/IFN-γ-induced cytokine secretion in peritoneal macrophages (cytometric bead array), IL-6; format: cell-based, C3H/HeJ mice; details: 10 μM protein; IFN-γ and LPS
Procedure: Peritoneal macrophages were obtained from C3H/HeJ mice (Doo-Yeol Biotech Co. Ltd. Korea) Peritoneal macrophages were incubated with 10 μM SOCS3 recombinant proteins (1:HS3, 2:HM165S3, 3:HM165S3A and 4:HM165S3B, respectively) for 1 hr at 37° C. and then stimulated them with LPS (Lipopolysaccharide)(500 ng/ml) and/or IFN-γ (100 U/ml) without removing iCP-SOCS3 proteins for 3, 6, or 9 hrs. The culture media were collected, and the extracellular levels of cytokine (TNF-α, IL-6) were measured by a cytometric bead array (BD Pharmingen, San Diego, Calif., USA) according to the manufacturer's instructions.

[4] = then 10 uM protein 1 hour, listed as aMTD165/SD-fused SOCS3 recombinant proteins

B1: HM165S3B: His-tagged recombinant protein of aMTD165, human SOCS3 and solubilization domain B; prototype improved cell-permeable SOCS3 (protein)
chain: MGSSHHHHHHSSGLVPRGSHMALAVPVALAIVPVTHSKFPAAGMETSRPLDTSLRLKTFSSKSEYQLVVNAVRKLQESGFYWSAVTGGEANLLLSAEPAGTFLIRDSSDQRHFFTLSVKTQSGTKNLRIQCEGGSFSLQSDPRSTQPVPRFDCVLKLVHHYMETPPPGAPSFPSPPTEPSSEVPEQPSAQPLPGSPPRRAYYIYSGGEKIPLVLSRPLSSNVATLQHLCRKTVNGHLDSYEKVTQLPGPIREFLDQYDAPLGSMAEQSDKDVKYYTLEEIQKHKDSKSTWVILHHKVYDLTKFLEEHPGGEEVLGEQAGGDATENFEDVGHSTDARELSKTYIIGELHPDDRSKIAKPSETL
modifications: Amino acid sequence of HM165S3B
anti-proliferative activity (AGS cells): high anti-proliferative effects on gastric carcinoma cells
cell-to-cell protein transfer (CD14/FITC double-positive cells) (RAW 264.7 cells [1]; 10 uM FITC-labeled protein 1 hour, co-culture with CD14-stained RAW 264.7 cells 2 hours): Efficient cell-to-cell transfer
cell-to-cell protein transfer (RAW 264.7 cells [1]; RAW 264.7 treated with 5 μM FITC-labeled protein 2 hour, seeded on PANC-1 cell 2 hours): efficient cell-to-cell transfer
tumor growth inhibition at day 21 (Hep3B2.1-7 tumor): 80%
tumor growth inhibition at day 35 (Hep3B2.1-7 tumor; 2 weeks after termination): 70%
induction of apoptosis (TUNEL), Chang liver cells (Chang liver cells): did not induce apoptosis
induction of apoptosis (TUNEL), Huh7 (Huh7 cells): considerably efficient inducer of apoptosis
cytotoxicity to Hep3B2.1-7 cells [2]: over 80%
protein uptake after proteinase K pretreatment (RAW 264.7 cells [3]; then 10 uM protein 1 hour): essentially unaffected
protein uptake after proteinase K pretreatment (RAW 264.7 cells [3]; [4]): independent to cell surface receptor
protein uptake after taxol pretreatment (RAW 264.7 cells [3]; then 10 uM protein 1 hour): essentially unaffected
protein uptake after taxol pretreatment (RAW 264.7 cells [3]; [4]): not due to endocytosis
protein uptake after antimycin (ATP depletion) (RAW 264.7 cells [3]; 1 mM ATP and 10 uM antimycin 2 hours, then 10 uM protein 1 hour): essentially unaffected
protein uptake after EDTA pretreatment (RAW 264.7 cells [3]; 100 mM EDTA 3 hours, then 10 uM protein 1 hour): blocked
protein uptake at low temperature (RAW 264.7 cells [3]; 4° C. vs 37° C., 10 uM protein 1 hour): blocked
effect on IL-6 secretion (IL-6): showed the greatest inhibitory effect on cytokine secretion

From patent US10385103B2, “Cell-permeable (ICP)-SOCS3 recombinant protein and uses thereof” (CELLIVERY THERAPEUTICS, INC., priority 2014, dated 2019)
